Source: patent US20260042815A1, “UNIVERSAL T CELLS AND COMPOSITIONS AND METHODS OF USE THEREOF” (The Trustees of the University of Pennsylvania, priority 2022, published 2026)

System: stress ligands (MICA, MICB, ULBP 1-6) on K562 target cells
Assay: Stress ligand blocking on K562 target cells with soluble NKG2D protein
Type: cell-based, human
Settings: parental K562 and K878 targets, NK cells from two donors
Source text: Soluble NKG2D protein was employed to block stress ligands (MICA, MICB, ULBP 1-6) on K562 target cells, which interfered with NKG2D mediated recognition of target cells.

B1: NKG2D protein: Soluble NKG2D protein employed to block stress ligands (MICA, MICB, ULBP 1-6) on K562 target cells (protein, UniProt P26718 73-216, looked up)
extracellular domain: IWSAVFLNSLFNQEVQIPLTESYCGPCPKNWICYKNNCYQFFDESKNWYESQASCMSQNASLLKVYSKEDQDLLKLVKSYHWMGLVHIPTNGSWQWEDGSILSPNLLTIIEMQKGDCALYASSFKGYIENCSTPNTYICMQRTV
modifications: extracellular domain
Effect on target cell recognition by NK cells: minimal efficacy
